Experimental data from the supplement of paper PMC9170038.

What follows are sequences tested on MS2 coat protein (assay: apparent KD of MS2 coat protein, switch OFF state (with FMN for OFF switches, without FMN for ON switches); designed switch direction (-1 OFF switch, 1 ON switch): -1; higher = weaker reporter binding). Conditions: FMN input: 0 or 200 uM; Eterna round: R93 (includes R88 designs).
How it was run: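 Designed RNA switches, transcribed on-chip from Illumina sequencing clusters, were titrated with SNAP-549-labelled MS2 coat protein from 0.7 or 1.5 nM to 3 µM in twofold steps. The solution was 100 mM Tris-HCl pH 7.5, 80 mM KCl, 4 mM MgCl2, with constant ligand or without it. Apparent KD is the median over each design's normalised cluster binding-curve fits.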

| Sequence | apparent KD of MS2 coat protein |
| --- | --- |
| AACUGACAUGAGGAUCACCCAUGUCAGGAUAUGACUUGAAAAAAAAAAAAAAAACAUGUCAGAAGGGACAUGGG [Design 55 :P Sub-opt HB] | 17.9 nM |
| GGAGGGCAAGGAUAUACAUGAGGAUCACCCAUGUGAGAGAAAAAAGUGAGAAAGAAAAGUAGAAGGUGCUUUCG [salish99-ex3-130] | 47.8 nM |
| AGGUGGUCAGGAUAUGCGUGAAGAAUAAAACAAAUAACAACGCAGAAGGGACAUGAGGAUCACCCAUGUCACCA [May 52] | 16.6 nM |
| CCUAUGUCAGGAUAUCAGUAGUAAAAAAAAAAAAUUACUACUGAGAAGGGACAUGAGGAUCACCCAUGUCCCUU [EX4 309: Super Stable 9] | 14.3 nM |
| AAAAAACAUGAGGAUCACCCAUGUAAGGAUAUGCUGAAAAACACGGAAAAACGUGACAGCAGAAGGUACAAAAG [Mat - Exclusion 1 - Eli mod - D93] | 84 nM |
| GAAAAACAUGAGGAUCACCCAUGUAAGGAUAUGCUGAAAAACACGGAAAAAACGUGCAGCAGAAGGUACAAAAG [Mat - Exclusion 1 - Eli mod - D91] | 131 nM |
| AAAACGGCAGGAUAUACGAUUUGGAACUAGACCGAGGAACCACAUGAGGAUCACCCAUGUAGAAGGGCCAAAAA [Ex2 Malc#16] | 19.7 nM |
| AAGAAGUGAGGAUAUACGCGAACAAAAAAAAAAAAGAAAGCGUAGAAGGCACAUGAGGAUCACCCAUGUCAAAA [Alfred Victor Espinas] | 28.3 nM |
| AGUUGGCGAGGAUAUACAUGAGGAUCACCCAUGUGAAAUCGAGAAAAAAUAGGGAAAAGUAGAAGGCGCUGACA [Ruby 62] | 90.6 nM |
| AAGAAGUGAGGAUAUACAUGAGGAUCACCCAUGUAAAAGAAAGAAAGGGAAAAGAAAAGUAGAAGGCACAAGAA [Usermaatre-setpenre-meryamun Ramesses VII] | 67.7 nM |
| AAUAAACAUGAGGAUCACCCAUGUAAGGAUAUCGAAAAAAAAAUAAACAAAAAAAAAACGAGAAGGUACAAAAA [Exclusion 1 design 2] | 27 nM |
| AAAAGGCGAGGAUAUACAUGAGGAUCACCCAUGUAAGUAAGCCUGGCUGAAACUAAAUGUAGAAGGCGCAAAAA [Mat - Exclusion 3 - Neo mod - D73] | 56.2 nM |
| AAUAAACAUGAGGAUCACCCAUGUCAGGAUAUGCAUCUAACAUAAUAACAUAAAUACAGCAGAAGGGACUAAUA [JR_Exc001_Sub601] | 20.6 nM |
| ACUAAACGAGGAUAUACUGACAAACCUCAAACAUACAUCAAACAUGAGGAUCACCCAUGUAGAAGGCGUAAACU [JR_Exc002_Sub401] | 19.6 nM |
| ACCUAGUCAGGAUAUACAAACAUGUCAAAAGACGUGAAAAAACAUGAGGAUCACCCAUGUAGAAGGGACUAGGA [Mat - Exclusion 2 - JL mod - D22] | 19.7 nM |
| GAAAAGCAAGGAUAUACAUGAGGAUCACCCAUGUAACCUGAAAGCAUGAUCGGUGACAGUAGAAGGUGCGAAAU [Tixegerice] | 56.9 nM |
| AAGAAGUGAGGAUAUGUCUGUGCGAAAAAAAAAAAGUGCAGACAGAAGGCACAUGAGGAUCACCCAUGUGAAAA [Florian 65% 4] | 26.7 nM |
| AAAAAACAUGAGGAUCACCCAUGUCAGGAUAUCUGUAUUCAAUCCUCGGAUUGAAUACAGAGAAGGGACAUGAA [Ex1: 603] | 110 nM |
| AUCGAUCGAGGAUAUACAUGAGGAUCACCCAUGUAAAGCAGAAGAAAGGCCUCAGGAUGUAGAAGGCGACGCAA [JR_Exc003_Sub404] | 41.9 nM |
| AGUCUGAGAGGAUAUACAUAGGAAAAAAAAGUCAGAUCCCUACAUGAGGAUCACCCAUGUAGAAGGCUCUGACA [Ex2 Design 148: Sub-opt 12] | 12.6 nM |
| AAUCCACAUGAGGAUCACCCAUGUGAGGAUAUCGUGCAGAAAAAAAAAAAAAACUGCACGAGAAGGCACAUGGA | 20.2 nM |
| AAAACUGGAGGAUAUACGAACAUGUCGAAAGACGUGAAGGGACAUGAGGAUCACCCAUGUAGAAGGCUAGAAAA [Mat - Exclusion 2 - JL mod - D72] | 58.4 nM |

| Sequence | apparent KD of MS2 coat protein |
| --- | --- |
| ACAAAUGUAGGAUAUACAUGAGGAUCACCCAUGUGGCACAAACAGCAAACAAGACAAAGUAGAAGGACAACGAC [JR_Exc003-Sub901] | 28.4 nM |
| AUAAAGUGAGGAUAUCGAAGACUGUCGAAAAGACAGUCGAACGAGAAGGCACAUGAGGAUCACCCAUGUGAGGG [Mat - Exaclusion 4 - Eli mod - D68] | 122 nM |
| CUCAUGUAAGGAUAUAUAUGAAAUGAAGUGAAAGAAAAGAAAUAGAAGGUACAUGAGGAUCACCCAUGUUAGAA [EteRNA is fun!] | 38.7 nM |
| AGUUGGCGAGGAUAUACAUGAGGAUCACCCAUGUGAAAUAAUGAAAAAGUAGGGAAAAGUAGAAGGCGCUGACA [73%, Moding Norbert Elias, 20] | 143 nM |
| AACAUGUCAGGAUAUGUGUAAAGAAUAAAAGAAAUAACAACACAGAAGGGACAUGAGGAUCACCCAUGUCAACA [May 32] | 29.3 nM |
| AAGAAACAUGAGGAUCACCCAUGUCAGGAUAUCCAAAAGAAAAGAAAAGAAAGAAGAAGGAGAAGGGACAAAGG [Neferkamin Anu] | 40.6 nM |
| AAGAAACAUGAGGAUCACCCAUGUGAGGAUAUAGAAGAAAGAAAGAAAGAAAGAAGAACUAGAAGGCACAAAGG [Aemilius Rectus] | 35.3 nM |
| AAGAAACAUGAGGAUCACCCAUGUGAGGAUAUGUAAAAGAAAAGAAAAGAAAGAAGAAACAGAAGGCACAAAGG [Neferkare VII] | 48 nM |
| GAAAAACAUGAGGAUCACCCAUGUAAGGAUAUGCUAAAAAACACGGAAAACGUGAAUAGCAGAAGGUACAAAAG [Mat - Exclusion 1 - Eli mod - D85] | 46.8 nM |
| AAAACACAUGAGGAUCACCCAUGUCAGGAUAUACGAGAAAGAAAAGAAAAGAAAAGAAGUAGAAGGGACUAGAA [Exclusion1 Malc#3] | 22.4 nM |
| AAAAAGCAAGGAUAUACAUGAGGAUCACCCAUGUGAAAAAAAACAAUAAGAAGAACAAGUAGAAGGUGCAAAAA [Mod of Ex3 Tesla 1 - Jieux - Exclusion 3] | 28.2 nM |
| AAGAACUGAGGAUAUACAAAAUAAAAGAAAAGAAAGAAAGAACAUGAGGAUCACCCAUGUAGAAGGCGGAAGAA [Wahibre Ibiau] | 29.1 nM |
| CUCUUGUCAGGAUAUCUAAGAAAAGAAGAGAAAGAAAAGAAAGAGAAGGGACAUGAGGAUCACCCAUGUAAGAA [EteRNA is fun!] | 32.4 nM |
| AUCAUCCUAGGAUAUACAUGGAUAUACAUUCAUGUGGACCUACAUGAGGAUCACCCAUGUAGAAGGAGGAUGAA [Mat - Same state - Mayanna Mod - D139] | 75.1 nM |
| GAAAAGUGAGGAUAUUCGGAUAGGAAAACGAAAACCUAUCCGAAGAAGGCACAUGAGGAUCACCCAUGUAAAAG [Mat - Exaclusion 4 - Eli mod - D36] | 51.9 nM |
| AUCUUGUCAGGAUAUCGUAUAAUAUGGAAAACAUAGAGAUACGAGAAGGGACAUGAGGAUCACCCAUGUAAAAC [May 97] | 40 nM |
| AAAGGACGAGGAUAUACAUGAGGAUCACCCAUGUAAAAAACAUAAUAAAAGAACUUAUGUAGAAGGCGUCCAAA [Meechl Ex3 2 R1 - Copy of Meechl Ex3 2 from Round 1] | 318 nM |
| AAAUAGUUAGGAUAUACAUGAGGAUCACCCAUGUGGACUUAUGGCGAAUAAUUUAGUGGUAGAAGGGACUAAAA [EX2 Malc#28] | 53.8 nM |
| ACUAGUACAGGAUAUACAUGAGGAUCACCCAUGUGAGAAUUAAGUGGCGUACCACAAAGUAGAAGGGUACUAGA [Mat - Exclusion 3 - JL mod - D14] | 152 nM |
| AACUGACAUGAGGAUCACCCAUGUCAGGAUAUGACUUCGAAAAAAAAAAAAAACGAUGUCAGAAGGGACAUGGG [Design 69: Sub-opt OB] | 22.3 nM |
| AAAAAGUCAGGAUAUGCUUAUAAUAAGAAAAUUAGAGAUAUGCAGAAGGGACAUGAGGAUCACCCAUGUAAAAA [Ex 4.1] | 36.4 nM |
| AGAAUACAUGAGGAUCACCCAUGUGAGGAUAUCCAAAGAAAAAGAAAAGAAAAGAAAAGGAGAAGGCACAAAAG [EX 1 May 13] | 67.3 nM |
